For assay [1], the target named is human CD47 (human) (UniProt Q08722). Nature of the assay: flow cytometry, CHO-K1 cells expressing human CD47; FIG. 3. For orientation: In flow cytometry, cells or beads pass a laser one at a time.
For assay [2] the target is unchanged. In words: flow cytometry, CHO-K1 cells expressing human CD47; FIG. 4.
Assay [3] deals with human LAG-3 (human) (UniProt P18627). Nature of the assay: flow cytometry, CHO-K1 cells expressing human LAG-3; FIG. 1.
The target is the same in assay [4]. In words: flow cytometry, CHO-K1 cells expressing human LAG-3; FIG. 2.

By EC50 is commonly meant the midpoint of the concentration-response curve.

human LAG-3 (human), sequence (P18627 23-525): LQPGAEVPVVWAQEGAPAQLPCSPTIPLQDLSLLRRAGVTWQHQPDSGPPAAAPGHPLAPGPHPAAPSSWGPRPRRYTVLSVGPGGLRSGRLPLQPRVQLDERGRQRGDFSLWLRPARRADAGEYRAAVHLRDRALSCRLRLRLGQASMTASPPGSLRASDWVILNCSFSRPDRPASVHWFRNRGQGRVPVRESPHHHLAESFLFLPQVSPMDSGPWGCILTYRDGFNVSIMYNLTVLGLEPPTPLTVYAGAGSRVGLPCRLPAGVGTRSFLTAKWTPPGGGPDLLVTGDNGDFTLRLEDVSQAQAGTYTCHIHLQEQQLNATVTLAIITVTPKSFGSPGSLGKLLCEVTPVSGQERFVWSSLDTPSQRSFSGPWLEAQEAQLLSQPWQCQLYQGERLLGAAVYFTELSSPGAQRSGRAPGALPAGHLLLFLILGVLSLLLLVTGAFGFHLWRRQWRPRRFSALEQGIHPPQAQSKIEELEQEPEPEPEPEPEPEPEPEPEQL
human CD47 (human), sequence (Q08722 19-323): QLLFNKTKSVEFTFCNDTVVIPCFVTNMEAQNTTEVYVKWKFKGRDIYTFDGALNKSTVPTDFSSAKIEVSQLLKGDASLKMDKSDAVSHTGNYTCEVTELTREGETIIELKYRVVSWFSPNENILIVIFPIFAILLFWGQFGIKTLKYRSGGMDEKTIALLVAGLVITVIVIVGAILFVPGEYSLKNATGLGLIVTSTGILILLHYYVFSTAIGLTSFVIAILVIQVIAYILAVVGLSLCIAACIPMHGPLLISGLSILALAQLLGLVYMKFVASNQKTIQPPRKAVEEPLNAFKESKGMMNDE

In the case of Human IgG, the EC50 with human CD47 (human) [1] worked out at 14.4 nM; in the assay with human CD47 (human) [2] it was 14.4 nM; with human LAG-3 (human) [3], 2.46 nM; in the assay with human LAG-3 (human) [4], 2.46 nM.

The record behind these values is US20220267436A1.
